The values below come from patent publication US20010016194A1 (priority 1999, published 2001).

Data set [1] has as its target T1, Raf-1 proteins present in T-cell lysates (Homo sapiens, UniProt P04049).
T1 construct: endogenous in cells; host or cells: PHA-stimulated human peripheral blood mononuclear cells (T cells), lysate
Put plainly: Cell-free system: binding of Raf-1 from T-cell lysates to FLAG-HMK-IL-2Rβ chain fusion proteins on anti-FLAG beads, anti-Raf-1 immunoblot. Further details: decrease of Raf-1 binding in comparison to WT control: unit not given here. Conditions: T-cell lysates, anti-Raf-1 immunoblot; for binding of T-cell derived Raf-1 proteins: affinity beads coated with fusion protein. The text has this: (ii) In order to study the interaction of IL-2Rβ chain with intracellular molecules, the FLAG-HMK-IL-2Rβ chain cytoplasmic domain fusion protein was purified from bacterial lysate using the M2 anti-FLAG monoclonal antibody in a standard affinity chromatography procedure. More specifically, bacterial lysate proteins were absorbed onto anti-FLAG (M2) affinity column (IBI-Kodak, New Haven, Conn., USA). After washing the column, the adsorbed proteins were eluted with either glycine buffer (pH 3) or FLAG peptide (10^−4M). Proteins in various fractions were analyzed for expected size (about 33 kDa) and purity after separation on SDS-PAGE and Commassie blue staining. The presence of a functional HMK recognition site was confirmed by phosphorylation of the purified 33 kDa IL-2Rβ chain fusion protein by HMK. More specifically, the eluted fusion proteins were tested for susceptibility to phosphorylation by incubation with the catalytic subunit of bovine heart muscle kinase (Sigma) (1 U/ul) in buffer containing 20 mM Tric-HCl, pH 7.5, 1 mM DTT, 100 mM NaCl, 10 mM MgCl2 and 1μCi [γ^32p] ATP for 30 min at 37° C. followed by SDS-PAGE and autoradiography. Purified FLAG-HMK-IL-2Rβ chain fusion proteins were used as an affinity reagent to probe for cytosolic proteins present in lysates of human T cells, metabolically labeled with [^35S ]-methionine, that bind to the IL-2Rβ chain. […] For [^35S]-methionine labeling, the cells were suspended at 4×10^7 cells/ml at 37° C. followed by addition of 0.5 mCi of [^35S]-methionine for 4 hours prior to lysis in Dounce homogenization buffer and application of the lysate to the affinity column. Several [^35S]-labeled proteins were retained by the FLAG-HMK-IL-2Rβ chain cytosolic domain fusion protein bound to the affinity column. One of these proteins was identified as Raf-1 by immunoblotting using a polyclonal antibody specific for the SP-63 peptide which corresponds to the C-terminal fragment of Raf-1. A molar excess of the competing SP-63 peptide blocked binding of the anti-SP-63 antibody to Raf-1.
Using the basic cell-free system described above, a number of FLAG-HMK-IL-2Rβ chain wild type FLAG-HMK-IL2Rβ chain deletion mutant proteins were then studied with respect to this specific interaction with Raf-i proteins present in T-cell lysates. These FLAG-HMK-IL2Rβ chain wild type (WT) and deletion mutants lacking certain defined domains of the IL-2Rβ chain were used to identify the IL-2Rβ chain domain involved in Raf-1 binding. Assay conditions were similar to those described above. […] In FIG. 1, there is shown, schematically, all of the constructs, i.e., FLAG-HMK-IL-2Rβ chain fusion proteins produced in transformed bacterial cells and used in this study. These FLAG-HMK- fusion proteins-coated beads were then used as affinity reagents to absorb Raf-1 proteins present in T-cell lysates. T-cell derived proteins bound to FLAG-HMK fusion proteins were then eluted using buffer containing FLAG peptide, separated on SDS-PAGE, transferred onto Immobilon membrane and blotted with anti-Raf-1 antibody.
The absorbed proteins were washed, eluted with FLAG peptide and probed for the presence of Raf-1 and 14-3-3 proteins on immunoblots. […] Washed cells (about 4×10^7) were lysed in Dounce homogenization buffer, centrifuged (15×10^3 xg for 15 min.) and supernatants applied onto washed anti-FLAG (M2) affinity column (IBI-Kodak) coated with bacterial lysates interacted with one of the FLAG-HMK fusion proteins. […]
In general terms: In western blotting, separated proteins are transferred to a membrane and probed.

The test system of data set [2] is T-cell derived, active serine/threonine kinase. Nature of the data set: Protein kinase reaction on anti-FLAG beads coated with FLAG-HMK-IL-2Rβ chain proteins and exposed to T-cell lysates. It counts as biochemical, human. Conditions: for level of (His)6-Mek-1 kinase phosphorylation: kinase defective (His)6-Mek-1 as substrate; for serine/threonine kinase activity, phosphorylation of p70 protein: no exogenously added substrate. The source says:
FLAG-HMK-IL-2Rβ chain wild type and deletional mutants lacking certain defined domains of the IL-2Rβ chain (see Examples 1 and 2 and FIG. 1) were used to identify IL-2Rβ chain domain involved in binding T-cell derived, active serine/threonine kinase. Assay conditions were similar to those noted above. […] FLAG-HMK- fusion proteins coated beads were further used as affinity reagents to absorb proteins present in T-cell lysates. T-cell derived proteins bound to FLAG-MHK fusion proteins were then tested for serine/threonine kinase activity in the absence or presence of exogenous substrates: Histone H-1 or (His),-Mek-1. Products of kinase reactions were boiled in SDS-PAGE sample buffer followed by separation on SDS-PAGE, transfer onto Immobilon membrane and autoradiography. The following are the experiments that were carried out and their results: […]

The target of the next data set is T2, (His)6-Raf-1 (Homo sapiens, UniProt P04049).
T2 construct: made in house; host or cells: M15 bacteria (E. coli), pQE-30
Put plainly: Totally cell-free system: binding of bacterially produced (His)6-Raf-1 to FLAG-HMK-IL-2Rβ chain fusion proteins, anti-Raf-1 immunoblot. Conditions: estimated using Hewlett Packard ScanJet. As to the method: For the construction of the (His)6-Raf-1 expression plasmid, PCR was performed using the […] cDNA as template and oligonucleotide primers designed to facilitate cloning into the pQE-30 plasmid according to the manufacturer's protocol (QIAGEN, QIAexpressionist; Chatsworth, CA). (His)6-Raf-1 protein was produced in M15 bacteria by IPTG induction, and purified on Ni-NTA resin (QIAGEN). Affinity purification yielded a 72-74 kD protein which was recognized by anti Raf-1 antibody.
Accordingly, in this totally cell-free assay, FLAG-HMK-IL-2Rβ chain wild type and deletion mutants lacking at least one of several defined domains of the IL-2Rβ chain (see Example 1) were used to identify the IL-2Rβ chain domain involved in Raf-1 binding. Assay conditions were similar to those described in Example 1. Briefly, bacterially produced proteins: FLAG-HMK-IL-2Rβ chain wild type (WT), FLAG-HMK-IL-2Rβ chain containing only proline rich C-terminal (CT^+), FLAG-HMK-IL-2Rβ chain mutants lacking:serine rich region (S^−), acidic domain (A^−), acidic domain and proline rich C-terminal (A^−CT^−) were incubated with bacterially produced (His)6-Raf-1 (for all constructs see FIG. 1) followed by adsorption of FLAG-HMK-IL-2Rβ chain/Raf-1 complexes on anti-FLAG affinity beads. After extensive washing, IL-2Rβ chain/Raf-1 complexes were competitively eluted from anti-FLAG beads using buffer containing FLAG peptide. Eluted proteins were separated on SDS-PAGE, transferred onto Immobilon membrane and blotted with anti-Raf-1 antibody.

B1: mutant A^−CT^−: FLAG-HMK-IL-2Rβ chain mutant lacking both acidic domain and proline rich C-terminal (protein)
chain: NCRNTGPWLKKVLKCNTPDPSKFFSQLSSEHGGDVQKWLSSPFPSSSFSPGGLAPEISPLEVLERDKVTQLLL
modifications: left off: small tags and cut ends
notes: FLAG-HMK-IL-2Rβ chain mutant lacking both acidic domain and proline rich C-terminal
As to B1, in data set [1], the “binding of T-cell derived Raf-1 proteins” value is recorded as “no binding”. In addition, in data set [2], the “level of (His)6-Mek-1 kinase phosphorylation” value (shortened to “level”) is “Background levels” and the “serine/threonine kinase activity, phosphorylation of p70 protein” value (“serine/threonine kinase activity” for short) was “no phosphorylated band p70”. In the data set with (His)6-Raf-1, the “amount of Raf-1 proteins bound, % of the positive control value (Raf-1 binding to FLAG-HMK-IL-2Rβ chain WT)” value is reported as 0%.

B2: FLAG-HMK-IL-2Rβ chain mutant A-: FLAG-HMK-IL-2Rβ chain mutant lacking the acidic domain (protein)
chain: NCRNTGPWLKKVLKCNTPDPSKFFSQLSSEHGGDVQKWLSSPFPSSSFSPGGLAPEISPLEVLERDKVTQLLLQPLSGEDDAYCTFPSRDDLLLFSPSLLGGPSPPSTAPGGSGAGEERMPPSLQERVPRDWDPQPLGPPTPGVPDLVDFQPPPELVLREAGEEVPDAGPREGVSFPWSRPPGQGEFRALNARLPLNTDAYLSLQELQGQDPTHLV
modifications: left off: small tags and cut ends
notes: FLAG-HMK-IL-2Rβ chain mutant lacking the acidic domain
Turning to B2, the “decrease of Raf-1 binding in comparison to WT control” value in data set [1] is reported as 50-80. Moreover, in data set [2], the “level” value is recorded as “Background levels” and the “serine/threonine kinase activity” value is listed as “no phosphorylated band p70”. For the same molecule, the “amount of Raf-1 proteins bound, % of the positive control value (Raf-1 binding to FLAG-HMK-IL-2Rβ chain WT)” value with (His)6-Raf-1 is 17-50%.

B3: FLAG-HMK-IL-2Rβ chain CT^+: FLAG-HMK-IL-2Rβ chain containing only the proline rich C-terminal (protein)
chain: QPLSGEDDAYCTFPSRDDLLLFSPSLLGGPSPPSTAPGGSGAGEERMPPSLQERVPRDWDPQPLGPPTPGVPDLVDFQPPPELVLREAGEEVPDAGPREGVSFPWSRPPGQGEFRALNARLPLNTDAYLSLQELQGQDPTHLV
modifications: left off: small tags and cut ends
notes: FLAG-HMK-IL-2Rβ chain containing only the proline rich C-terminal
On to B3, for which the “binding of T-cell derived Raf-1 proteins” value in data set [1] is recorded as “no binding”. Also, in data set [2], the “level” value was “Background levels” and the “serine/threonine kinase activity” value is recorded as “no phosphorylated band p70”. For the same molecule, the “amount of Raf-1 proteins bound, % of the positive control value (Raf-1 binding to FLAG-HMK-IL-2Rβ chain WT)” value in the data set with (His)6-Raf-1 is reported as 0%-10%.
